This is an account of results in article PMC13140710, “Small heat shock proteins HspB1 and HspB5 differentially alter the condensation and aggregation of the TDP‐43 low‐complexity domain” (Protein Science : A Publication of the Protein Society, 2026).

To fix the notation:
B1: HspB5^ACD (core α‐crystallin domain of HspB5, residues 68–162) (domain or fragment, human, UniProt P02511 68-162, looked up)
chain: MRLEKDRFSVNLDVKHFSPEELKVKVLGDVIEVHGKHEERQDEHGFISREFHRKYRIPADVDPLTITSSLSSDGVLTVNGPRKQVSGPERTIPIT
modifications: Alexa Fluor 647 (NHS ester) label in TCCD and in the condensate partitioning experiment
notes: Small heat shock protein HspB5 (αB-crystallin), α-crystallin domain, residues 68-162; pET28 vector, gift of A. Laganowsky (Laganowsky et al., 2010); also called core domain of HspB5; source: E. coli BL21(DE3), purified
B2: TDP‐43 low‐complexity domain (TDP‐43^LCD), amino acids 267–414 of TDP‐43 (domain or fragment, UniProt Q13148 267-414, looked up)
chain: NRQLERSGRFGGNPGGFGNQGGFGNSRGGGAGLGNNQGSNMGGGMNFGAFSINPAMMAAAQAALQSSWGMMGMLASQQNQSGPSGNNQNQGNMQREPNQAFGSGNNSYSGSNSGAAIGWGSASNAGSGSGFNGGFGSSMDSKSSGWGM
modifications: Cy5 (mono NHS ester) label in TCCD and, at 1% of the protein, in FRAP; unlabelled in the other assays
notes: source: E. coli BL21(DE3), purified from inclusion bodies (HisTrap in 8 M urea), buffer exchanged into 20 mM MES pH 6.0

In assay [1] the target is B2. Description: two-color coincidence detection (TCCD), confocal single-molecule fluorescence; fluorescently labelled TDP-43^LCD and labelled sHsp, diluted to 200 nM in 20 mM MES pH 6.0, 25°C, both in solution; peaks found in both channels within 10 ms counted as coincident (hetero-oligomers). Particulars: both partners purified.
Assay [2] addresses T1, HspB5^WT (wild-type human HspB5, αB‐crystallin) (human, UniProt P02511 1-175, Alexa Fluor 647 (NHS ester) label in TCCD and in the condensate partitioning experiment; unlabelled in the other assays).
T1 construct: Small heat shock protein HspB5 (αB-crystallin), human, wild type, full-length isoform; Vector pET3a or pET24a; source: E. coli BL21(DE3), purified
T1 sequence (looked up): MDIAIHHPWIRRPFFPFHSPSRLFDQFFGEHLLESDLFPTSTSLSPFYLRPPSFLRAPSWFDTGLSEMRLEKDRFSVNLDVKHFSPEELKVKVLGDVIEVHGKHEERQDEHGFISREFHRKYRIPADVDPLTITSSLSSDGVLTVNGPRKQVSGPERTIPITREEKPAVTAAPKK
Described as above. The following applies: both partners purified.

Consider B1, for which the binding result in assay [1] was “binds”.
Regarding B2, the binding result in assay [2] was “binds”.
